# IntAct's records for PubMed 24036454
# B1: Protein GLUTAMINE DUMPER 1 (Arabidopsis thaliana (Mouse-ear cress)), O81775 (parent)
# chain: MRPLSVQSKFEDVATSTSVNHHGVTPQSPWHSPVPYLFGGLAAMLGLIAFALLILACSYWRLSSSGEEDGQNVDEEKESRSGDKAANGAYEEKFLVIMAGEDLPRYLATPAMKKCTCGGHEGKMVISQEESVAKEEEKMREGEEEKVKDTGETTTTSH
# partner: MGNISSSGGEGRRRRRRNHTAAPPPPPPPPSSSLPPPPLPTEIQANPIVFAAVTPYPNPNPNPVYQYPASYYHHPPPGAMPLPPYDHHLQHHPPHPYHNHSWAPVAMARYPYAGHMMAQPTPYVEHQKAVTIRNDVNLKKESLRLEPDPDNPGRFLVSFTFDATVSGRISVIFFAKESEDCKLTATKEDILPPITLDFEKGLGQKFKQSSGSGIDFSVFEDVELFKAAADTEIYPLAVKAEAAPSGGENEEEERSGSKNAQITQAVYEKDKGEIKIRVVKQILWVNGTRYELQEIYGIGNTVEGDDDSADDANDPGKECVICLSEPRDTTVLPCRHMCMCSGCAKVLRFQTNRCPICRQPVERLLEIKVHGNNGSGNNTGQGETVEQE
# B2: Protein GLUTAMINE DUMPER 1 (Arabidopsis thaliana (Mouse-ear cress)), O81775 (parent)
# chain: B1 chain
# partner: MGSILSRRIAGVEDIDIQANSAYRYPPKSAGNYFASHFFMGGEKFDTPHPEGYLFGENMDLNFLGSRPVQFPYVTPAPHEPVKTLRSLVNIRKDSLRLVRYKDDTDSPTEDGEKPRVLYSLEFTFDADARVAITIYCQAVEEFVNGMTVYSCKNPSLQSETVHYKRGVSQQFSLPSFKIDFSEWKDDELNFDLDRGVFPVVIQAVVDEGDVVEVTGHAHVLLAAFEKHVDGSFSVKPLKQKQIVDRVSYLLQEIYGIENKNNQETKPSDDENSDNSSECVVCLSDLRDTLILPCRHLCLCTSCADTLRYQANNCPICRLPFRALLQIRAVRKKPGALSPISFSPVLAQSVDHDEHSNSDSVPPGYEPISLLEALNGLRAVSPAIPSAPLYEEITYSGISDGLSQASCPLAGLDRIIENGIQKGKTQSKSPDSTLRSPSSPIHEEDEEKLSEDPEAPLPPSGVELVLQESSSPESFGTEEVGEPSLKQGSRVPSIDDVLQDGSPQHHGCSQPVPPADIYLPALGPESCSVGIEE
# Variants of: B1
# Details: with lofg2_arath LOG2, Q9S752
row,effect of a mutation on the interaction,Variant
1,disrupting interaction,G100R

# Variants of: B1
# Details: with lofg2_arath LOG2, Q9S752
# Remark: another data set of the same source
row,effect of a mutation on the interaction,Variant
1,disrupting interaction,V96F;I97F;M98F;A99F;G100F

# Variants of: B2
# Details: with mgrn1_rat Mgrn1, Q5XIQ4
row,effect of a mutation on the interaction,Variant
1,disrupting interaction,G100R
